From paper PMC5125619 (Nature, 2016) come the findings set out here.

Where only a bound is given, the exact number is not on record here.

In assay [1] the target is FAM-labelled RBBP5 peptide (residues 330–363) mixed with ASH2L(SPRY) (human) (UniProt Q15291). Kind of assay: fluorescence polarisation.
A further assay concerns the target MLL3 SET domain (human, UniProt Q8NEZ4 4757-4911). Kind of assay: crystal structure.

MLL3 SET domain (human, UniProt Q8NEZ4 4757-4911), sequence (Q8NEZ4 4757-4911): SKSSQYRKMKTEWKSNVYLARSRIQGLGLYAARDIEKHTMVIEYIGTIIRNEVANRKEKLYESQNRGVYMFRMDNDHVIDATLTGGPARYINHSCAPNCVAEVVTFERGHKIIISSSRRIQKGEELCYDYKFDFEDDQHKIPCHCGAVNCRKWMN

For the molecule “MLL3 SET domain (from UniProt Q8NEZ4 4757-4911) (domain or fragment)”, the Kd (usually the equilibrium constant for the complex coming apart) in assay [1] is 100 nM.
Still for that read-out and setting: as for “MLL1 SET domain (from UniProt Q03164 3829-3945) (domain or fragment)”, the figure is over 100000 nM.

B1: H3 peptide (H3 residues 1–9) (peptide)
peptide: ARTKQTARK
Take B1: in the assay with MLL3 SET domain, the binding result is recorded as “binds”.
